Measured values from patent US20040058445A1.

Biological target: MHC class I (framework determinant) on human tumor cells of patient 1C

inhibition of lysis of autologous 1C tumor cells in a 4-hour 51Cr release assay: 5 % lysis
Substance: MAb w6/32 (antibody)
